Measurements reported in publication PMC8345109, “Optimization of New Catalytic Topoisomerase II Inhibitors as an Anti-Cancer Therapy” (Cancers, 2021).

How the values were obtained:
TOP2B full-length = TOP2B full-length (Homo sapiens, UniProt Q02880 1-1626); assay: EMSA; 200 uM ICRF193; FP: 20 mM HEPES-NaOH pH 7.4, 2 mM DTT, 3 mM MgCl2, 0.05% NP-40, protease inhibitors, room temperature 20 min; EMSA buffer not in material; settings: protein: recombinant; label: IRDye700 (printed IRDay700); blunt; self-complementary 20-mer, 2 copies
TOP2A full-length = TOP2A full-length (Homo sapiens, UniProt P11388 1-1531); assay: as above; settings: protein: recombinant; label: IRDye700 (printed IRDay700); blunt; self-complementary 20-mer, 2 copies
TOP2A(431-1193) = TOP2A(431-1193) (Homo sapiens, UniProt P11388 431-1193); assay: EMSA; merbarone; FP: 20 mM HEPES-NaOH pH 7.4, 2 mM DTT, 3 mM MgCl2, 0.05% NP-40, protease inhibitors, room temperature 20 min; EMSA buffer not in material; settings: protein: recombinant; tags: N-terminal 6xHis (pET28a); label: IRDye700 (printed IRDay700); blunt; self-complementary 20-mer, 2 copies

Measured: binding result

Sequence of TOP2A full-length (P11388 whole entry): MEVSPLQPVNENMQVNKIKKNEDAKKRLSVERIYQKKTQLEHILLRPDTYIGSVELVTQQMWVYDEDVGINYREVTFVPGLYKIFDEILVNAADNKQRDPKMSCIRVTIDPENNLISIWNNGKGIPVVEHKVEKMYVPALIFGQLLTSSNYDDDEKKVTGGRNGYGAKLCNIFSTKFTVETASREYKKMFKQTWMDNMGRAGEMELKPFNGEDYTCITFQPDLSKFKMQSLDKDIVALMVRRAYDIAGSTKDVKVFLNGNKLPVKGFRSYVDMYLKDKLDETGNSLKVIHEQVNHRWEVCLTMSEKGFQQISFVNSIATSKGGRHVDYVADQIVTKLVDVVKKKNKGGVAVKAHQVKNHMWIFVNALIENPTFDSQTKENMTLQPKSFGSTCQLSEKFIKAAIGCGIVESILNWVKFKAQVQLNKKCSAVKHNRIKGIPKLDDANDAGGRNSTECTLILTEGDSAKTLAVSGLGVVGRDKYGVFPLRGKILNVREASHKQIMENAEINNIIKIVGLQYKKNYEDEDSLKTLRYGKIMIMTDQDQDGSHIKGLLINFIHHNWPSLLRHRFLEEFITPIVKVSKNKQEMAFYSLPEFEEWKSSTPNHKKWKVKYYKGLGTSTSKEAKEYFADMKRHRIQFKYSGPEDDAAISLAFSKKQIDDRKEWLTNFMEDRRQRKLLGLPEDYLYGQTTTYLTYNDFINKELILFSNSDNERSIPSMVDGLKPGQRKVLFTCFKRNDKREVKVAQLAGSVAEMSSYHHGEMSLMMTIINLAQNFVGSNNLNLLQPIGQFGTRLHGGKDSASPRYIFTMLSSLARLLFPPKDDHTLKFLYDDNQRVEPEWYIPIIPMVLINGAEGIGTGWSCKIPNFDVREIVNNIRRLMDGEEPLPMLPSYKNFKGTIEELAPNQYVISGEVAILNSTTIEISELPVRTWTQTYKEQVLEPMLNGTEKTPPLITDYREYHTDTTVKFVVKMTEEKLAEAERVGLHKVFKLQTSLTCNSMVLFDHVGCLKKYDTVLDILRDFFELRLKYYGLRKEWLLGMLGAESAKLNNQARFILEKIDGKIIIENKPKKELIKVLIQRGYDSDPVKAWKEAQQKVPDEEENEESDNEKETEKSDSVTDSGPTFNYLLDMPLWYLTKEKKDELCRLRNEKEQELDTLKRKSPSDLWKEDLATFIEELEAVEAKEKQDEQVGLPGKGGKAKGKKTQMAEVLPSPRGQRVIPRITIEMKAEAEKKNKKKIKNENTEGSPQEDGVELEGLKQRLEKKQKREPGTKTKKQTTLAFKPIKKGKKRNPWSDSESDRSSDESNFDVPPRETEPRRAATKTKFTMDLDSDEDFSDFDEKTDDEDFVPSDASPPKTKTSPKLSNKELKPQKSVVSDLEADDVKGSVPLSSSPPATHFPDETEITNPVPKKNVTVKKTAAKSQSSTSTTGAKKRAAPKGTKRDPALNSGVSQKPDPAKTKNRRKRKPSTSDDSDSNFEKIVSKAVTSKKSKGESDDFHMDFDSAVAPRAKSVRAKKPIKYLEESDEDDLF
Sequence of TOP2B full-length (Q02880 whole entry): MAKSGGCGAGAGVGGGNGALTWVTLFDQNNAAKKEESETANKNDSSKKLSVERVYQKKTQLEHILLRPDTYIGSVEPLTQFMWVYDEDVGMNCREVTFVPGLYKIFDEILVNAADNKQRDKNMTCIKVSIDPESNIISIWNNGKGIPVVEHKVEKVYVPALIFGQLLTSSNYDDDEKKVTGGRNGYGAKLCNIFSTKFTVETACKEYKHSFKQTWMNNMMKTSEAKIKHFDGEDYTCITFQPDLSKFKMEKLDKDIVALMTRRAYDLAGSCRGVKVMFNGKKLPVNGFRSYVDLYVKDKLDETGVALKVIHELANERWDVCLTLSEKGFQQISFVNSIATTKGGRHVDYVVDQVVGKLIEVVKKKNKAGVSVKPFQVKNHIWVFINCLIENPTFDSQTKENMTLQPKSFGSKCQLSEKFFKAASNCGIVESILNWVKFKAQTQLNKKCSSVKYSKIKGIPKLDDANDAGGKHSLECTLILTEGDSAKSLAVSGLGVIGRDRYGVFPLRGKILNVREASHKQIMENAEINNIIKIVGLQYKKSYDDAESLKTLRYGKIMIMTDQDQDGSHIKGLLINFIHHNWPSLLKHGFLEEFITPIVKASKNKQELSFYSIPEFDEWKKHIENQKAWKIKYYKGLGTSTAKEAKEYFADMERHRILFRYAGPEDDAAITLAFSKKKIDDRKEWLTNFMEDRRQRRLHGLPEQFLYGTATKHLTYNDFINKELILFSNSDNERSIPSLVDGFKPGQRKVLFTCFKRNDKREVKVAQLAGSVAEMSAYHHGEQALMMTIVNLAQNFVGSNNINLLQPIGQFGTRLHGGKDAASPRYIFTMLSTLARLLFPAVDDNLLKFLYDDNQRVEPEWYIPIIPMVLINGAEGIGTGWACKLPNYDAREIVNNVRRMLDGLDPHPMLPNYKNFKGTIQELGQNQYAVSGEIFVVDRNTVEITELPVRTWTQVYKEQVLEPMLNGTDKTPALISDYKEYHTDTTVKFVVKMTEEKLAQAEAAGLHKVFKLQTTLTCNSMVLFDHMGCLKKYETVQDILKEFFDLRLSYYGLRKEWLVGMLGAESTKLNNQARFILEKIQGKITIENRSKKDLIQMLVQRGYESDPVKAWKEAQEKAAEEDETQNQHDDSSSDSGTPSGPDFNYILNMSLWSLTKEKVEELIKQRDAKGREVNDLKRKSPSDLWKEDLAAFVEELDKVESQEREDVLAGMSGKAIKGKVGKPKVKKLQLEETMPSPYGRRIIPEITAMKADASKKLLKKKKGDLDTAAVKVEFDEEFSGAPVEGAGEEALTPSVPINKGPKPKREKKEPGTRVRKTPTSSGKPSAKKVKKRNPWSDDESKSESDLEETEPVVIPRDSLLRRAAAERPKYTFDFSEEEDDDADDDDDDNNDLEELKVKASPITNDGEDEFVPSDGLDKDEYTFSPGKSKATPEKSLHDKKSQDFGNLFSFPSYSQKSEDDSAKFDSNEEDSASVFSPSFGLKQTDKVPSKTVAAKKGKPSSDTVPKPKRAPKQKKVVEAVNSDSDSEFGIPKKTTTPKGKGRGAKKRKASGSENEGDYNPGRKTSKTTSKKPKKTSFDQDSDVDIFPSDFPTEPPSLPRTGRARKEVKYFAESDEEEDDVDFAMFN
Sequence of TOP2A(431-1193) (P11388 431-1193): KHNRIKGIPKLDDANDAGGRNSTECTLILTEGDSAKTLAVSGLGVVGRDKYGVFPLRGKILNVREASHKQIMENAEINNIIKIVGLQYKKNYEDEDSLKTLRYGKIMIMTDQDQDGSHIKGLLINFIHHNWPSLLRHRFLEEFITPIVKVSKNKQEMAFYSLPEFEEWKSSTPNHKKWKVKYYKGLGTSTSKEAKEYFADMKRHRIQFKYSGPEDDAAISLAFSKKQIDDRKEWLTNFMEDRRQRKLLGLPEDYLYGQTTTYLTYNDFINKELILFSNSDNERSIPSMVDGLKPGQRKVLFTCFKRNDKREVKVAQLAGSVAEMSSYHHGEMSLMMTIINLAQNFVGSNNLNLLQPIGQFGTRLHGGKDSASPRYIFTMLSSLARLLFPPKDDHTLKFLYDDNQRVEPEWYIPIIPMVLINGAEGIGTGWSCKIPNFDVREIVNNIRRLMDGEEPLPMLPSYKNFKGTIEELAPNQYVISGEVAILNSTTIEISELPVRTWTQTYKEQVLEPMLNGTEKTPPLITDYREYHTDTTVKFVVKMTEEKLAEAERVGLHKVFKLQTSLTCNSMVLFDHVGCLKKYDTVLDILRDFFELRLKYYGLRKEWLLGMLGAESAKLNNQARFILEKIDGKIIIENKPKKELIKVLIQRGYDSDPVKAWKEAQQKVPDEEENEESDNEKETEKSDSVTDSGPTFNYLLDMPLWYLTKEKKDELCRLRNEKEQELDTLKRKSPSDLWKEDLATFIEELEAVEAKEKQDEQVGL

B1: 5ZRF DNA oligo (IRDye700) (dsDNA)
DNA 1: AGCCGAGCTGCAGCTCGGCT
DNA 2: AGCCGAGCTGCAGCTCGGCT
binds: all assays above
